Test results published in patent publication US20160145321A1.

Assays:
Assay in all cases: cell-based or functional assay
[1] = target: G protein of RSV A/Long (virus, ATCC Cat. No. VR-26) (Respiratory syncytial virus A/Long) (UniProt P20895)
[2] = target: G protein of RSV A/A2 (virus, ATCC Cat. No. VR-1540) (Respiratory syncytial virus A/A2) (UniProt P03423)
[3] = target: G protein of RSV B/18537 (virus, ATCC Cat. No. VR-1580) (Respiratory syncytial virus B/18537) (UniProt P20896)

## CR9514 (an antibody based on 3D3, comprising the heavy and light chain variable region of 3D3)
[1]
  Neutralization IC50 (plaque reduction assay, Vero cells): 0.017 µg/mL
[2]
  Neutralization IC50 (plaque reduction assay, Vero cells): 0.0407 µg/mL
[3]
  Neutralization IC50 (plaque reduction assay, Vero cells): 0.033 µg/mL
